Assay results from paper PMC12520357 (2025).

T1: 14-3-3 proteins, P29311
T1 chain: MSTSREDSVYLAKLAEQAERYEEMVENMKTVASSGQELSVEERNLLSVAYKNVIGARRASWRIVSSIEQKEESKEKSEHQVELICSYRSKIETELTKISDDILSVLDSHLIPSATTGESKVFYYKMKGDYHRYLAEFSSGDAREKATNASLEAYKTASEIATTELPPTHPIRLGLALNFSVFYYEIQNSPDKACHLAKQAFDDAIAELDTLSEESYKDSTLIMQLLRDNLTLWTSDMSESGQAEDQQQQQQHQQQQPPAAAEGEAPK


Biological target: T1, 14-3-3 proteins, P29311
Assay: co-immunoprecipitation (anti-FLAG IP, immunoblot quantification)
Settings: chain shown with the change; n = 3; reg1Δ Snf1-GFP Glc7-GFP cells; parent: est. 1.0; read off a plot

Binder	ratio to parent
Reg1-FLAG (wild type), Q00816 N624S (protein) MSTNLANYFAGKKDIENEHVNRNASHESNSKSDVKISGNDNDNDEDMGPSVSMAVQAKNDDDFHKSTFNLKRTRSMGLLDEYIDPTKKLLGRSDDLYDNDNEYYDNSSNNSSSNSSDDDYDDGYQEHSTSVSPPPADNDSYLIPQDDNDVVVEPERHVDYLSHEWKESEISNSWKYIILKKKKRDVDLVNAARLENASWRTWAKARNNLKTVSPEVVNWSKDSDVTWLYGPIVRDSEGNAQSEEEHDLERGYGSDDENSKRISMPTKNSKSIAAAPKPILKKRTVTEIIEDNALWKLNEARKHMTEMKHASVIMDPNGNKNVHDDFDALAAQVNAQYYHYPKESNSSVSLKSQHSDKKDNSTIPNPVGENSNGGGDKGEEDLHLKSALHVQNNRSTAQSNKSILENSTNDRKANLDQNLNSPDNNRFPSSTSSSNRDNENNSMGLSSILTSNPSEKSNKPTKNRHIHFNDRVEQCMALRYPASQSEDDESDDENKQYVDVNNNANVTTINNNRTPLLAIQHKSIPINSATEHLNKNTSDDDTSSQSSSSSHSDDEEHGGLYINARFSRRSDSGVHSPITDNSSVASSTTSRAHVRPIIKLLPDTTLNYGSDEESDNGEFNGYGSAVSHNVNTSRGYDYIYDYNSVYTGDTSSFLPVDSCDIVDVPEGMDLQTAIADDNASNYEFNNAVESKEKHVPQLHKASANNTTRQHGSHMLLYDDDNYSSSSDSEQQFIEDSQYNSSDDEEEEDDDDQEVDDNHDEGLSLRRTLSLGKSGSTNSLYDLAQPSLSSATPQQKNPTNFTGGKTDVDKDAQLAVRPYPLKRNSSSGNFIFNSDSEEESSSEEEQRPLPANSQLVNRSVLKGSVTPANISSQKKKALPKQPKASDSSQSFRIVNNTPSPAEVGASDVAIEGYFSPRNESIKSVVSGGNMMDHQDHSEMDTLAKGFENCHINNASKLKDKKVDSVQTTRKEASLTDSSNESLHKVVQNARGMASKYLHSWKKSDVKPQENGNDSS	1.4
Reg1-FLAG (wild type), Q00816 P231S (protein) MSTNLANYFAGKKDIENEHVNRNASHESNSKSDVKISGNDNDNDEDMGPSVSMAVQAKNDDDFHKSTFNLKRTRSMGLLDEYIDPTKKLLGRSDDLYDNDNEYYDNSSNNSSSNSSDDDYDDGYQEHSTSVSPPPADNDSYLIPQDDNDVVVEPERHVDYLSHEWKESEISNSWKYIILKKKKRDVDLVNAARLENASWRTWAKARNNLKTVSPEVVNWSKDSDVTWLYGSIVRDSEGNAQSEEEHDLERGYGSDDENSKRISMPTKNSKSIAAAPKPILKKRTVTEIIEDNALWKLNEARKHMTEMKHASVIMDPNGNKNVHDDFDALAAQVNAQYYHYPKESNSSVSLKSQHSDKKDNSTIPNPVGENSNGGGDKGEEDLHLKSALHVQNNRSTAQSNKSILENSTNDRKANLDQNLNSPDNNRFPSSTSSSNRDNENNSMGLSSILTSNPSEKSNKPTKNRHIHFNDRVEQCMALRYPASQSEDDESDDENKQYVDVNNNANVTTINNNRTPLLAIQHKSIPINSATEHLNKNTSDDDTSSQSSSSSHSDDEEHGGLYINARFSRRSDSGVHSPITDNSSVASSTTSRAHVRPIIKLLPDTTLNYGSDEESDNGEFNGYGNAVSHNVNTSRGYDYIYDYNSVYTGDTSSFLPVDSCDIVDVPEGMDLQTAIADDNASNYEFNNAVESKEKHVPQLHKASANNTTRQHGSHMLLYDDDNYSSSSDSEQQFIEDSQYNSSDDEEEEDDDDQEVDDNHDEGLSLRRTLSLGKSGSTNSLYDLAQPSLSSATPQQKNPTNFTGGKTDVDKDAQLAVRPYPLKRNSSSGNFIFNSDSEEESSSEEEQRPLPANSQLVNRSVLKGSVTPANISSQKKKALPKQPKASDSSQSFRIVNNTPSPAEVGASDVAIEGYFSPRNESIKSVVSGGNMMDHQDHSEMDTLAKGFENCHINNASKLKDKKVDSVQTTRKEASLTDSSNESLHKVVQNARGMASKYLHSWKKSDVKPQENGNDSS	1.2
Reg1-FLAG (wild type), Q00816 A54T (protein) MSTNLANYFAGKKDIENEHVNRNASHESNSKSDVKISGNDNDNDEDMGPSVSMTVQAKNDDDFHKSTFNLKRTRSMGLLDEYIDPTKKLLGRSDDLYDNDNEYYDNSSNNSSSNSSDDDYDDGYQEHSTSVSPPPADNDSYLIPQDDNDVVVEPERHVDYLSHEWKESEISNSWKYIILKKKKRDVDLVNAARLENASWRTWAKARNNLKTVSPEVVNWSKDSDVTWLYGPIVRDSEGNAQSEEEHDLERGYGSDDENSKRISMPTKNSKSIAAAPKPILKKRTVTEIIEDNALWKLNEARKHMTEMKHASVIMDPNGNKNVHDDFDALAAQVNAQYYHYPKESNSSVSLKSQHSDKKDNSTIPNPVGENSNGGGDKGEEDLHLKSALHVQNNRSTAQSNKSILENSTNDRKANLDQNLNSPDNNRFPSSTSSSNRDNENNSMGLSSILTSNPSEKSNKPTKNRHIHFNDRVEQCMALRYPASQSEDDESDDENKQYVDVNNNANVTTINNNRTPLLAIQHKSIPINSATEHLNKNTSDDDTSSQSSSSSHSDDEEHGGLYINARFSRRSDSGVHSPITDNSSVASSTTSRAHVRPIIKLLPDTTLNYGSDEESDNGEFNGYGNAVSHNVNTSRGYDYIYDYNSVYTGDTSSFLPVDSCDIVDVPEGMDLQTAIADDNASNYEFNNAVESKEKHVPQLHKASANNTTRQHGSHMLLYDDDNYSSSSDSEQQFIEDSQYNSSDDEEEEDDDDQEVDDNHDEGLSLRRTLSLGKSGSTNSLYDLAQPSLSSATPQQKNPTNFTGGKTDVDKDAQLAVRPYPLKRNSSSGNFIFNSDSEEESSSEEEQRPLPANSQLVNRSVLKGSVTPANISSQKKKALPKQPKASDSSQSFRIVNNTPSPAEVGASDVAIEGYFSPRNESIKSVVSGGNMMDHQDHSEMDTLAKGFENCHINNASKLKDKKVDSVQTTRKEASLTDSSNESLHKVVQNARGMASKYLHSWKKSDVKPQENGNDSS	1.2

Now from value to binder:

ratio to parent	Binder
1.2	Reg1-FLAG (wild type), Q00816 P278Q (protein) MSTNLANYFAGKKDIENEHVNRNASHESNSKSDVKISGNDNDNDEDMGPSVSMAVQAKNDDDFHKSTFNLKRTRSMGLLDEYIDPTKKLLGRSDDLYDNDNEYYDNSSNNSSSNSSDDDYDDGYQEHSTSVSPPPADNDSYLIPQDDNDVVVEPERHVDYLSHEWKESEISNSWKYIILKKKKRDVDLVNAARLENASWRTWAKARNNLKTVSPEVVNWSKDSDVTWLYGPIVRDSEGNAQSEEEHDLERGYGSDDENSKRISMPTKNSKSIAAAPKQILKKRTVTEIIEDNALWKLNEARKHMTEMKHASVIMDPNGNKNVHDDFDALAAQVNAQYYHYPKESNSSVSLKSQHSDKKDNSTIPNPVGENSNGGGDKGEEDLHLKSALHVQNNRSTAQSNKSILENSTNDRKANLDQNLNSPDNNRFPSSTSSSNRDNENNSMGLSSILTSNPSEKSNKPTKNRHIHFNDRVEQCMALRYPASQSEDDESDDENKQYVDVNNNANVTTINNNRTPLLAIQHKSIPINSATEHLNKNTSDDDTSSQSSSSSHSDDEEHGGLYINARFSRRSDSGVHSPITDNSSVASSTTSRAHVRPIIKLLPDTTLNYGSDEESDNGEFNGYGNAVSHNVNTSRGYDYIYDYNSVYTGDTSSFLPVDSCDIVDVPEGMDLQTAIADDNASNYEFNNAVESKEKHVPQLHKASANNTTRQHGSHMLLYDDDNYSSSSDSEQQFIEDSQYNSSDDEEEEDDDDQEVDDNHDEGLSLRRTLSLGKSGSTNSLYDLAQPSLSSATPQQKNPTNFTGGKTDVDKDAQLAVRPYPLKRNSSSGNFIFNSDSEEESSSEEEQRPLPANSQLVNRSVLKGSVTPANISSQKKKALPKQPKASDSSQSFRIVNNTPSPAEVGASDVAIEGYFSPRNESIKSVVSGGNMMDHQDHSEMDTLAKGFENCHINNASKLKDKKVDSVQTTRKEASLTDSSNESLHKVVQNARGMASKYLHSWKKSDVKPQENGNDSS
1.1	Reg1-FLAG (wild type), Q00816 W165G (protein) MSTNLANYFAGKKDIENEHVNRNASHESNSKSDVKISGNDNDNDEDMGPSVSMAVQAKNDDDFHKSTFNLKRTRSMGLLDEYIDPTKKLLGRSDDLYDNDNEYYDNSSNNSSSNSSDDDYDDGYQEHSTSVSPPPADNDSYLIPQDDNDVVVEPERHVDYLSHEGKESEISNSWKYIILKKKKRDVDLVNAARLENASWRTWAKARNNLKTVSPEVVNWSKDSDVTWLYGPIVRDSEGNAQSEEEHDLERGYGSDDENSKRISMPTKNSKSIAAAPKPILKKRTVTEIIEDNALWKLNEARKHMTEMKHASVIMDPNGNKNVHDDFDALAAQVNAQYYHYPKESNSSVSLKSQHSDKKDNSTIPNPVGENSNGGGDKGEEDLHLKSALHVQNNRSTAQSNKSILENSTNDRKANLDQNLNSPDNNRFPSSTSSSNRDNENNSMGLSSILTSNPSEKSNKPTKNRHIHFNDRVEQCMALRYPASQSEDDESDDENKQYVDVNNNANVTTINNNRTPLLAIQHKSIPINSATEHLNKNTSDDDTSSQSSSSSHSDDEEHGGLYINARFSRRSDSGVHSPITDNSSVASSTTSRAHVRPIIKLLPDTTLNYGSDEESDNGEFNGYGNAVSHNVNTSRGYDYIYDYNSVYTGDTSSFLPVDSCDIVDVPEGMDLQTAIADDNASNYEFNNAVESKEKHVPQLHKASANNTTRQHGSHMLLYDDDNYSSSSDSEQQFIEDSQYNSSDDEEEEDDDDQEVDDNHDEGLSLRRTLSLGKSGSTNSLYDLAQPSLSSATPQQKNPTNFTGGKTDVDKDAQLAVRPYPLKRNSSSGNFIFNSDSEEESSSEEEQRPLPANSQLVNRSVLKGSVTPANISSQKKKALPKQPKASDSSQSFRIVNNTPSPAEVGASDVAIEGYFSPRNESIKSVVSGGNMMDHQDHSEMDTLAKGFENCHINNASKLKDKKVDSVQTTRKEASLTDSSNESLHKVVQNARGMASKYLHSWKKSDVKPQENGNDSS
